Legend:
[1] = system: 293 cells; assay: Fas-induced apoptosis in transfected 293 cells; type: cell-based, human; details: co-transfection of Fas and myc-XIAP; 36 hrs
Protocol: For determination of apoptotic activity in FIG. 2B, 293 cells in 60 mm dishes were transiently transfected with 6 μg of pcDNA-myc-tag control or pcDNA-myc-XIAP plasmids, and either 2 ug of pCMV5 or pCMV5-Fas plasmid DNA. All transfections included 0.5 ug of pEGFP as a marker and were normalized for total DNA content. The percentage of GFP positive cells with apoptotic morphology and nuclear changes consistent with apoptosis were enumerated by DAPI-staining (mean+SD; n=3) at 36 hrs. Alternatively, cell lysates were prepared, and immunoprecipitates were collected using anti-myc monoclonal antibody with protein-G-Sepharose, followed by SDS-PAGE immunoblot assay using anti-caspase-3 antiserum (Krajewska et al., supra 1997) to reveal the XIAP-associated p24 isoform of partially processed caspase-3. Lanes correspond to cells transfected with: (1) control plasmid; (2) myc-XIAP; (3) Fas plus myc-control; and (4) Fas plus myc-XIAP.
Apoptotic assays were performed as follows. 293 cells were transfected as described above, except that 0.5 μg pEGFP plasmid DNA was included.

[2] = biological target: T1, caspase-3 (Homo sapiens, UniProt P42574); assay: Inhibition of purified recombinant caspase-3, DEVD substrate hydrolysis and progress curves; type: biochemical
T1 construct: to produce the 17–20 kDa mature, fully processed large subunit of the active caspase-3 enzyme; a smaller, fully processed, subunit of about 11 kDa; His6; made in house; host or cells: E. coli BL21(DE3)pLysS
T1 sequence (P42574 29-175 limits assumed): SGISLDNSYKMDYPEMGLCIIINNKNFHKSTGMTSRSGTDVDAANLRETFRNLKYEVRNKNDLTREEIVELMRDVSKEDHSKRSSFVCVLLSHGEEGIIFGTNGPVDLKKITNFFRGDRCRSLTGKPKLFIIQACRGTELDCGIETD
T1 sequence (P42574 176-277 limits assumed): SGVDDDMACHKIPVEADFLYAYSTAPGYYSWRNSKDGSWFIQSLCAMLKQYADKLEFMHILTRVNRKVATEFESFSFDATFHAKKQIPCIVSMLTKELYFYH
Protocol: (§1) Purified recombinant caspase-1, caspase-3, caspase-6, caspase-7 or caspase-8 were incubated with DEVD-pNA, either alone or with a 10-fold to 50-fold molar excess of GST-XIAP ([…]) and substrate hydrolysis was measured. Purified active caspase concentrations ranged from 0.1 nM to 10 nM. XIAP concentration ranged from 0.1 nM to 500 nM. Assays were performed in caspase buffer (50 mM Tris, pH 7.4, 100 mM NaCl, 10% sucrose, 5–10 mM DTT, 1 mM EDTA and 0.1% CHAPS).
(§2) Equilibria were determined from progress curves when substrate hydrolysis reached a steady-state; slopes were calculated by curve fit analysis using the cricket graph program. Experiments were performed using purified recombinant caspase-3, caspase-6, or caspase-7. DEVD-AFC hydrolysis was measured using 0.1 nM caspase and a range of concentrations (0.2 to 12 μM) of recombinant XIAP (rXIAP). […] Average ratio velocities (vi/vo, where “vi” indicates presence of GST-XIAP and “vo” indicates absence of GST-XIAP) were determined.
Caspase activity was determined essentially as described in Example II, using the benzylyoxycarbonyl-DEVD-AFC (SEQ ID NO: 2) substrate and was assayed at 37° C. using the Perkin-Elmer LS50B fluorometric plate reader in the kinetic mode with excitation and emission wavelengths of 400 nm and 505 nm, respectively. […] Reactions were performed in caspase buffer (50 mM Hepes, 100 mM NaCl, 1 mM EDTA, 0.1% CHAPS, 10% sucrose, 5 mM DTT). The inhibition constant, Ki, was calculated as described (Zhou et al., supra, 1997). Immunoblot analysis was performed as described in Example I.B.3.

[3] = biological target: T2, caspase-1 (Homo sapiens, UniProt P29466); assay: Inhibition of purified recombinant caspase-1, substrate hydrolysis; type: biochemical; details: 50-fold molar excess
T2 construct: Purified active caspase concentrations ranged from 0.1 nM to 10 nM; made in house
T2 sequence (P29466 120-297 limits assumed): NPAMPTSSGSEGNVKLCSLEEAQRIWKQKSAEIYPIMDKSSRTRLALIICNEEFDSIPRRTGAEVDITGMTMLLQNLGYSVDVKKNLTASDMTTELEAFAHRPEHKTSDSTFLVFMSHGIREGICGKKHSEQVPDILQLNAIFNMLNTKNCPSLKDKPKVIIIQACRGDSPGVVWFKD
T2 sequence (P29466 317-404 limits assumed): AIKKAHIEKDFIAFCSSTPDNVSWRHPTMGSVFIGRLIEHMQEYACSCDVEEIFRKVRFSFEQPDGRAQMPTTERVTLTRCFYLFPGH
Protocol: as §1

[4] = biological target: T3, caspase-6 (Homo sapiens, UniProt P55212); assay: Inhibition of purified recombinant caspase-6, DEVD substrate hydrolysis; type: biochemical
T3 construct: Purified active caspase concentrations ranged from 0.1 nM to 10 nM; His6; made in house; host or cells: E. coli BL21(DE3)pLysS
T3 sequence (P55212 24-179 limits assumed): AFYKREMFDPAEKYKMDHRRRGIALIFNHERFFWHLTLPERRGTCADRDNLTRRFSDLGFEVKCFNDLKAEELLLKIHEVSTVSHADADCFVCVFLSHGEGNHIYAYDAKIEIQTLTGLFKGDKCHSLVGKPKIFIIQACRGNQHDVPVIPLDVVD
T3 sequence (P55212 194-293 limits assumed): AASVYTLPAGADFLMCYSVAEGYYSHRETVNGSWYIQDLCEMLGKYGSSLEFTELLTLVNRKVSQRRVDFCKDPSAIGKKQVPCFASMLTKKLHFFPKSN
Protocol: as §1, §2

[5] = biological target: T4, caspase-8 (Homo sapiens, UniProt Q14790); assay: Inhibition of purified recombinant caspase-8, DEVD substrate hydrolysis; type: biochemical
T4 construct: a cDNA encoding the catalytic subunit of caspase-8 (Ser 217 to the C-terminus); His6; made in house; host or cells: E. coli BL21(DE3)pLysS
Protocol: as §1, §2

[6] = DEVD-AFC hydrolysis with/without GST-XIAP

T4 sequence (Q14790 217-374 limits assumed): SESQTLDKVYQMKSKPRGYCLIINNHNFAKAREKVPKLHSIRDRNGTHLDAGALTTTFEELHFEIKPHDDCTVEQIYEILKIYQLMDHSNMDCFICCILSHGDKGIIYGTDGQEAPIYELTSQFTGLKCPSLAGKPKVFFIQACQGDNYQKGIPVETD
T4 sequence (Q14790 385-479 limits assumed): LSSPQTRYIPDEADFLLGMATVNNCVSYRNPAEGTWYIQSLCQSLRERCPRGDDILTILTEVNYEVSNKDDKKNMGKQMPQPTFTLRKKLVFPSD

inhibition of processing of DEVD-pNA by caspase-3 ([2]; 10-fold molar excess): greater than 95%
average ratio velocity (vi/vo), caspase-3 [2, 6]: less than 0.2
Ki ([2]; progress curve analysis, DEVD-AFC 0.1 mM, 0.1 nM caspase, read-out: inhibition constant (Ki) for caspase-3): ~700 pM
interference with substrate cleavage by caspase-1 [3]: did not interfere
interference with substrate cleavage by caspase-6 ([4]; 50-fold molar excess): did not interfere
average ratio velocity (vi/vo), caspase-6 [4, 6]: about 1.0
interference with substrate cleavage by caspase-8 ([5]; 50-fold molar excess): did not interfere
average ratio velocity (vi/vo), caspase-8 [5, 6]: about 1.0
Substance: XIAP: X chromosome linked inhibitor of apoptosis protein (Genbank U32974), used mostly as recombinant GST fusion or expressed from plasmid
Fas-induced apoptosis (in words) [1]: markedly suppressed
